Measurements reported in article PMC5422739.

How the values were obtained:
[1] = target: LigA on the surface of L. biflexa serovar Patoc ligA
histidine tagged HTE20N = histidine tagged HTE20N (UniProt P15502); experiment: ELISA; conditions: 10 µM His-HTE20N applied to wells coated with LigB12 construct (1 µM/well); detected by anti-His antibodies; parent: est. 1.05; read off a plot
histidine tagged HTE20 = histidine tagged HTE20 (UniProt P15502); experiment: ELISA; conditions: 10 µM His-HTE20 applied to wells coated with LigB12 construct (1 µM/well); detected by anti-His antibodies; parent: est. 0.73; read off a plot
Sequence of histidine tagged HTE20 (P15502 whole entry, looked up, the tested form may be a part): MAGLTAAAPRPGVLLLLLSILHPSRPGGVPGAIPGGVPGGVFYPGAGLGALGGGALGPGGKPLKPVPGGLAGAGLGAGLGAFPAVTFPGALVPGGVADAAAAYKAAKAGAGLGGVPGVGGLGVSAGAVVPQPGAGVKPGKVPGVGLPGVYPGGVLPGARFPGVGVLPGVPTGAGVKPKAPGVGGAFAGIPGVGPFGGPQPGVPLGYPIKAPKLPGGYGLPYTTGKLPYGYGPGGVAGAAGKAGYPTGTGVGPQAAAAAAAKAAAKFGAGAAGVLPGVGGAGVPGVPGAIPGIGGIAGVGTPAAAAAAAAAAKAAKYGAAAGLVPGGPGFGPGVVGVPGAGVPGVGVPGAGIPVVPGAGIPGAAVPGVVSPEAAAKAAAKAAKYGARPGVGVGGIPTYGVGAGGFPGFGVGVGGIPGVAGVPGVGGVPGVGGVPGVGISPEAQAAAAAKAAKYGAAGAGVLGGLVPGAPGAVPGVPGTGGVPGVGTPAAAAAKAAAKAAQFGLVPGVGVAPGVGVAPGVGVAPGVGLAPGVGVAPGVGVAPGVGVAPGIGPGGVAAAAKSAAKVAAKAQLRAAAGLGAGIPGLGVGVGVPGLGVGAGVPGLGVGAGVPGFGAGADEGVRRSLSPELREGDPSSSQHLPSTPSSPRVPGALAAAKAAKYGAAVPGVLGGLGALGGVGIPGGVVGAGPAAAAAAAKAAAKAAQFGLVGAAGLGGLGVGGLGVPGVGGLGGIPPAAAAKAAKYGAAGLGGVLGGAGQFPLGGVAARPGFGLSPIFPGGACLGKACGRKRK

[2] = target: tag free LigB12 (amino acids 1,047–1,119 in LigB) (L. interrogans serovar Pomona); experiment: SPR; Biacore 3000; tag free LigB12 immobilised on CM5 (about 1,000 RU); HTE truncates 0 to 5 μM injected in PBS at 30 μL/min, 25°C; 1:1 Langmuir model
[3] = target: LigB12-5-12 chimera (L. interrogans serovar Pomona); experiment: ELISA; tag-free LigB5/LigB12 and LigB7/LigB10 chimeras and wild-type domains coated (1 μM/well); 5 μM histidine tagged HTE17-20, HTE20 or HTE20N applied; anti-His detection
[4] = target: LigB12-12-5 chimera (L. interrogans serovar Pomona); experiment: as above
[5] = target: HTE20N (the first 27 residues of HTE20, amino acids 358–384 of HTE) (human) (UniProt P15502); experiment: ELISA; HTE17-20, HTE20, HTE20N, HTE20C or BSA coated (1 μM/well); GST tagged LigB4 or LigB12 titrated 0 to 10 μM, 1 h at 37°C; HRP anti-GST; KD from a saturation fit of OD630
Sequence of HTE20N (the first 27 residues of HTE20, amino acids 358–384 of HTE) (human) (P15502 358-384): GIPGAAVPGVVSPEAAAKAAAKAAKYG

[6] = target: HTE25-27 (25th to 27th exon of human tropoelastin) (human); experiment: ELISA; HTE truncates, HTE20 mutants or BSA coated (1 μM/well, 0.1 M NaHCO3 pH 9.4), blocked with 3% BSA in PBS; 5 μM GST tagged LigB4 or LigB12 applied 1 h at 37°C; HRP anti-GST; fold over BSA or percent of wild-type HTE20
[7] = target: HTE20 mutant R360A (human) (UniProt P15502); experiment: as above
[8] = target: HTE17-20 (17th to 20th exon of human tropoelastin) (human); experiment: as above
Sequence of HTE17-20 (17th to 20th exon of human tropoelastin) (human) (P15502 297-438): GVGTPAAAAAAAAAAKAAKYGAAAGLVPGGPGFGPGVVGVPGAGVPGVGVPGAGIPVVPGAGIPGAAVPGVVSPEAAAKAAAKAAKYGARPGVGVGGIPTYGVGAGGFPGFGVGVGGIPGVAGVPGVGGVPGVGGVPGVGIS

[9] = target: HTE20 mutant F381A (human) (UniProt P15502); experiment: as above
[10] = target: HTE20 mutant F378A (human) (UniProt P15502); experiment: as above
[11] = target: HTE19-20 (19th to 20th exon of human tropoelastin) (human); experiment: as above
[12] = target: HTE20 mutant Y371A (human) (UniProt P15502); experiment: as above
[13] = target: HTE18 (18th exon of human tropoelastin) (human); experiment: as above
[14] = target: HTE20 (20th exon of human tropoelastin) (human) (UniProt P15502); experiment: as above
Sequence of HTE20 (20th exon of human tropoelastin) (human) (P15502 358-412): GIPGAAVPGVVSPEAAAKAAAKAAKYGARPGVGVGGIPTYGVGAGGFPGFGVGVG

Sequence of histidine tagged HTE20N (P15502 whole entry, looked up): as the sequence (P15502 whole entry, looked up, the tested form may be a part) above

Which inhibition of the adhesion of LigA-expressing L. biflexa (Patoc ligA) to WI-38 cells after pre-incubation with HTE17-20, 10 to 0.156 μM; ELISA with hamster anti-L. biflexa sera [1] does the source give for “HTE17-20 (17th to 20th exon of human tropoelastin) (domain or fragment)” here?
Its inhibition of the adhesion of LigA-expressing L. biflexa (Patoc ligA) to WI-38 cells after pre-incubation with HTE17-20, 10 to 0.156 μM; ELISA with hamster anti-L. biflexa sera is 61%.

How did the response (histidine tagged HTE20N) turn out when “tag free LigB12 (amino acids 1,047–1,119 in LigB) A1065K” was run?
Its response is 0.09 OD630.

And the response (histidine tagged HTE20)?
Its response is 0.11 OD630.

For “HTE19-20 (19th to 20th exon of human tropoelastin) (domain or fragment)”, which Kd [2] is on record?
The Kd was 1.34 µM.

And the koff [2]?
The koff was 0.0043 s⁻¹.

What about the kon [2] of the same substance?
The kon was 3100 M⁻¹ s⁻¹.

What does the source list for “histidine tagged HTE17-20 (domain or fragment)”?
percent of wild-type LigB12 binding [3]: 80%; percent of wild-type LigB12 binding [4]: 90%

With “GST tagged LigB12 (amino acids 1,047–1,119 in LigB) (domain or fragment)” as the substance, how does the Kd [5] read?
Its Kd is 0.86 µM.

What about the fold binding over BSA (negative control) [6] of the same substance?
Its fold binding over BSA (negative control) is 3 fold.

What about the percent decrease of binding against wild-type HTE20 [7] of the same substance?
Its percent decrease of binding against wild-type HTE20 is 54%.

What about the fold binding over BSA (negative control) [8] of the same substance?
Its fold binding over BSA (negative control) is 5.7 fold.

What about the percent of wild-type HTE20 binding [9] of the same substance?
The percent of wild-type HTE20 binding was 35%.

What about the percent decrease of binding against wild-type HTE20 [10] of the same substance?
The percent decrease of binding against wild-type HTE20 was 62%.

And the fold binding over BSA (negative control) [11]?
The fold binding over BSA (negative control) was 4.5 fold.

What about the percent of wild-type HTE20 binding [12] of the same substance?
Its percent of wild-type HTE20 binding is 35%.

What about the fold binding over BSA (negative control) [13] of the same substance?
Its fold binding over BSA (negative control) is 2 fold.

And the fold binding over BSA (negative control) [14]?
Its fold binding over BSA (negative control) is 4.4 fold.

Which results are given for “GST tagged LigB4 (amino acids 307–403 in LigB) (domain or fragment)”?
Kd [5]: 0.86 µM; percent of wild-type HTE20 binding [7]: 32%; fold binding over BSA (negative control) [8]: 5.7 fold; percent decrease of binding against wild-type HTE20 [9]: 54%; percent of wild-type HTE20 binding [10]: 35%; fold binding over BSA (negative control) [11]: 4.5 fold; percent decrease of binding against wild-type HTE20 [12]: 61%; fold binding over BSA (negative control) [13]: 2 fold; fold binding over BSA (negative control) [14]: 4.4 fold
